Results as given in article PMC4477667.

Biological target: Deinococcus radiodurans RNase J, wild type, full-length (residues 1-559) (Deinococcus radiodurans)
Assay: SEC

stoichiometry N: 2
Substance: Deinococcus radiodurans RNase J, wild type, full-length (residues 1-559) (enzyme)
